# In paper PMC9097884 (Science Immunology, 2022):
# B1: REGN10933 (recombinant human IgG1/kappa) (antibody, V domains shown)
# VH: QVQLVESGGGLVKPGGSLRLSCAASGFTFSDYYMSWIRQAPGKGLEWVSYITYSGSTIYYADSVKGRFTISRDNAKSSLYLQMNSLRAEDTAVYYCARDRGTTMVPFDYWGQGTLVTVSS
# VL: DIQMTQSPSSLSASVGDRVTITCQASQDITNYLNWYQQKPGKAPKLLIYAASNLETGVPSRFSGSGSGTDFTFTISGLQPEDIATYYCQQYDNLPLTFGGGTKVEIK
# notes: source: HEK-293T, transient transfection, purified (Protein A Sepharose)
# B2: 87G7 human monoclonal antibody (recombinant human IgG1/kappa) (antibody, V domains shown)
# VH: EVQLLESGGGLVQPGGSLRLSCVASGFTFSSYVMSWVRQAPGKGLEWVAAISGSGGNTYYADSVKGRFTISRDNSKNTLYLQMNSLRAEDTAVYYCAKEGTYYYGSGSFWGQGTLVTVSS
# VL: EIVLTQSPATLSLSPGERATLSCRASQSFHNYLAWYQQKPGRAPRLLIFDASNRATGIPARFSGSGSGTDFTLTISSLEPEDFAVYYCQQRFNWPLTFGGGTKVEIK
# notes: also called 87G7 IgG; 87G7 mAb
# B3: REGN10987 (recombinant human IgG1/kappa) (antibody, V domains shown)
# VH: QVQLVESGGGVVQPGRSLRLSCAASGFTFSNYAMYWVRQAPGKGLEWVAVISYDGSNKYYADSVKGRFTISRDNSKNTLYLQMNSLRTEDTAVYYCASGSDYGDYLLVYWGQGTLVTVSS
# VL: QSALTQPASVSGSPGQSITISCTGTSSDVGGYNYVSWYQQHPGKAPKLMIYDVSKRPSGVSNRFSGSKSGNTASLTISGLQSEDEADYYCNSLTSISTWVFGGGTKLTVL
# Experiments:
# [1] = target: T1, SARS-CoV-2 S receptor-binding domain (RBD, residues 329-538, Wuhan-Hu-1) (SARS-CoV-2 (Wuhan-Hu-1 strain), UniProt P0DTC2); assay: ELISA; conditions: both partners purified
# T1 construct: also called SARS-CoV-2 S RBD domain; not shown: Strep-tag, C-terminal, kept
# [2] = target: SARS-CoV-2 S1 (residues 1-682, Wuhan-Hu-1) (SARS-CoV-2 (Wuhan-Hu-1 strain), UniProt P0DTC2); assay: ELISA; conditions: both partners purified
Binder,binding result [1],binding result [2]
B1,binds,binds
B2,binds,binds
B3,–,binds
